The source of these data is patent US7265267 (CROPDESIGN N V, dated 2007).

The target of test [1] is GAL4 DNA-binding domain-CDC2bAt fusion (pGBTCDC2B) (Arabidopsis thaliana, UniProt P04386 1-147; P25859 1-309). Kind of test: yeast two-hybrid, growth without histidine. The method, then: (§1) The pGBTCDC2B vector encoding a fusion protein between the C-terminus of the GAL4 DNA-binding domain and CDC2bAt was constructed by cloning the full length coding region of CDC2bAt into the pGBT9 vector. pGBTCDC2B was transformed with pGADLDV66/pGADLDV39/pGADLDV159 in the HF7c yeast and cotransformants were plated on medium with or without histidine. As control, pGBTCDC2A was transformed with pGADLDV66/pGADLDV39/pGADLDV159. In contrast to the transformants containing the pGBTCDC2A vector were cotransformants containing the pGBTCDC2B vector unable to grow in the absence of histidine.

Test [2] has as its target T1, GAL4 DNA binding domain alone (pGBT9) (UniProt P04386 1-147).
T1 construct: Negative control bait in the two-hybrid retransformation
In words: yeast two-hybrid control, growth without histidine. The source says:
(§2) The LDV159 clone was identical to ICK1 (GenBank accession number U94772 as published by Wang in Nature 386 (1997), 451–452). The two other clones were novel and encoded proteins only distantly related to ICK1 (Table 1). The LDV39 gene was 622 bp long, consisting of 423 bp coding region and 199 bp 3' UTR (excluding the poly-A tail). The LDV66 gene was 611 bp long, consisting of 379 bp coding region and 232 bp 3' UTR (excluding the poly-A tail). The specificity of the interaction between LDV39, LDV66, and LDV159 was verified by the retransformation of yeast with pGBTCDC2A and pGADLDV39/pGADLDV66/pGADLDV159. As controls, pGBTCDC2A was cotransformed with a vector containing only the GAL4 activation domain (pGAD424); and the pGADLDV39/pGADLDV66/pGADLDV159 vectors were cotransformed with a plasmid containing only the GAL4 DNA binding domain (pGBT9). Transformants were plated on medium with or without histidine. Only transformants containing both pGBTCDC2A and pGADLDV39, pGADLDV66, ot pGADLDV159 were able to grow in the absence of histidine.

Test [3] addresses T2, GAL4 DNA-binding domain-CDC2aAt fusion (pGBTCDC2A bait) (Arabidopsis thaliana, UniProt P04386 1-147; P24100 1-294).
T2 construct: Yeast two-hybrid bait; whole CDC2aAt coding region amplified from cDNA and cloned in the EcoRI site of pGBT9
Kind of test: yeast two-hybrid, growth without histidine. The procedure:
as §1

In test [4] the target is T2, GAL4 DNA-binding domain-CDC2aAt fusion …. Kind of test: yeast two-hybrid control, growth without histidine.
Source text: as §2

The target of test [5] is T3, CDC2bAt protein in protein extract of A. thaliana Col-O cell suspension culture (Arabidopsis thaliana, UniProt P25859 1-309).
T3 construct: Endogenous protein in a crude extract
T3 sequence (looked up): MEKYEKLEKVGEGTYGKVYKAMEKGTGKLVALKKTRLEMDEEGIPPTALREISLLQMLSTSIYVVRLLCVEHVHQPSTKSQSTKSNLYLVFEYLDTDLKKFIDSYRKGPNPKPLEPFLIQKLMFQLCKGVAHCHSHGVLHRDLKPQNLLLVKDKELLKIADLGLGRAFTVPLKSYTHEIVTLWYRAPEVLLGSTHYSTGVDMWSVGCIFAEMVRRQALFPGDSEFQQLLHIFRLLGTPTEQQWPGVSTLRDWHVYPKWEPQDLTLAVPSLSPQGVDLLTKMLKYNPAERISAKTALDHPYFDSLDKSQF
In words: pull-down from cell extract on FL66-Sepharose, Western blot. The method, then: The *Arabidopsis thaliana* CKI FL66 Associates Exclusively with CDC2aAt In Vitro Purified recombinant FL66 protein (prepared as described as in previous Example 6 was coupled to CNBr-activated Sepharose 4B (Pharmacia) at a concentration of 5 mg/ml of gel according to the manufacturer's instructions. Protein extracts were prepared from a 2-day-old cell suspension culture of *A. thaliana* Col-O in homogenisation buffer (HB) containing 50 mM Tris-HCl (pH 7.2), 60 mM β-glycerophosphate, 15 mM nitrophenyl phosphate, 15 mM EGTA, 15 mM MgCl_2, 2 mM dithiothreitol, 0.1 mM vanadate, 50 mM NaF, 20 µg/ml leupeptin, 20 µg/ml aprotinin, 20 µg/ml soybean trypsin inhibitor (SBTI), 100 µM benzamidine, 1 mM phenylmethylsulfonylfluoride, and 0.1% Triton X-100. Two-hundred µg protein extract in a total volume of 100 µl HB was loaded on 50 µl 50% (v/v) FL66-Sepharose or control Sepharose beads, and incubated on a rotating wheel for 2 h at 4° C. The unbound proteins were collected for later analysis. The beads-bound fractions were washed 3 times with HB. Beads were resuspended in 30 µl SDS-loading buffer and boiled. The supernatants (beads bound fractions) and 10 µl of the unbound fractions were separated on a 12.5% SDS-PAGE gel and electroblotted on nitrocellulose membrane (Hybond-C^+; Amersham). […]

B1: GAL4 activation domain-LDV39 fusion (pGADLDV39) (other, not shown: large carriers)
chain: RRDSPPVEEQCQIEEEDSSVSCCSTSEEKSKRRIEFVDLEENNGDDRETETSWIYDDLNKSEESMNMDSSSVAVEDVESRRRLRKSLHETVKEAELEDFFQVAEKDLRNKLLECSMKYNFDFEKDEPLGGGRYEWVKLNP
notes: FL39 = ICK2 = CKI2
Take B1: the binding result in test [1] and in test [2] was “no binding” throughout.

B2: GAL4 activation domain-FL39 fusion (pGADFL39) (other, not shown: large carriers)
chain: MAAVRRRERDVVEENGVTTTTVKRRKMEEEVDLVESRIILSPCVQATNRGGIVARNSAGASETSVVIVRRRDSPPVEEQCQIEEEDSSVSCCSTSEEKSKRRIEFVDLEENNGDDRETETSWIYDDLNKSEESMNMDSSSVAVEDVESRRRLRKSLHETVKEAELEDFFQVAEKDLRNKLLECSMKYNFDFEKDEPLGGGRYEWVKLNP
notes: also called ICK2; CKI2
With B2, the binding result in test [3] is reported as “binds”; in test [1], “no binding”.

B3: GAL4 activation domain alone (pGAD424) (other, UniProt P04386 768-881, looked up)
chain: ANFNQSGNIADSSLSFTFTNSSNGPNLITTQTNSQALSQPIASSNVHDNFMNNEITASKIDDGNNSKPLSPGWTDQTAYNAFGITTGMFNTTTMDDVYNYLFDDEDTPPNPKKE
notes: Negative control prey in the two-hybrid retransformation
On to B3, for which the binding result in test [4] is on record as “no binding”.

B4: Purified recombinant FL66 protein (E. coli, FL66pET21d), starting at methionine 11 (other)
chain: MEVSKATAPSPGVRTRAAKTLALKRLNSSAADSALPNDSSCYLQLRSRRLEKPSSLIEPKQPPRVHRSGIKESGSRSRVDSVNSVPVAQSSNEDECFDNFVSVQVSCGENSLGFESRHSTRESTPCNFVEDMEIMVTPGSSTRSMCRATKEYTREQDNVIPTTSEMEEFFAYAEQQQQRLFMEKYNFDIVNDIPLSGRYEWVQVKP
notes: also called FL66-Sepharose
Regarding B4, the binding result in test [5] is given as “no binding”.

B5: GAL4 activation domain-FL66 fusion (pGADFL66), FL66 starting at methionine 11 (other, not shown: large carriers)
chain: MEVSKATAPSPGVRTRAAKTLALKRLNSSAADSALPNDSSCYLQLRSRRLEKPSSLIEPKQPPRVHRSGIKESGSRSRVDSVNSVPVAQSSNEDECFDNFVSVQVSCGENSLGFESRHSTRESTPCNFVEDMEIMVTPGSSTRSMCRATKEYTREQDNVIPTTSEMEEFFAYAEQQQQRLFMEKYNFDIVNDIPLSGRYEWVQVKP
notes: the FL66 clone may not be full length; also called ICK3
With B5, the binding result in test [1] is recorded as “no binding”.

B6: GAL4 activation domain-LDV159 fusion (pGADLDV159) (other, Arabidopsis thaliana, UniProt Q67Y93 1-191, looked up, not shown: large carriers)
chain: MVRKYRKAKGIVEAGVSSTYMQLRSRRIVYVRSEKSSSVSVVGDNGVSSSCSGSNEYKKKELIHLEEEDKDGDTETSTYRRGTKRKLFENLREEEKEELSKSMENYSSEFESAVKESLDCCCSGRKTMEETVTAEEEEKAKLMTEMPTESEIEDFFVEAEKQLKEKFKKKYNFDFEKEKPLEGRYEWVKLE
notes: also called ICK1
Turning to B6, the binding result in test [1] was “no binding”.

B7: GAL4 activation domain-LDV66 fusion (pGADLDV66) (other, not shown: large carriers)
chain: VNSVPVAQSSNEDECFDNFVSVQVSCGENSLGFESRHSTRESTPCNFVEDMEIMVTPGSSTRSMCRATKEYTREQDNVIPTTSEMEEFFAYAEQQQQRLFMEKYNFDIVNDIPLSGRYEWVQVKP
notes: FL66 = ICK3
Turning to B7, the binding result in test [1] and in test [2] was “no binding” in each case.
